This is an account of results in paper PMC9741643.

Experiment [1] concerns the target mouse IgG1 kappa anti-CD3 antibody (clone UTH1, BD bioscience 555329) (mouse). As to the kind of experiment: cross-linking; photo-crosslinking through BpA in PpL: 50-100 uM PpL construct with 1-4 uM antibody in PBS pH7.6, 365 nm light (6.4 mW/cm^2) up to 1 h; products reduced with DTT and read on SDS-PAGE.
The target in experiment [2] is Cetuximab (Selleck Chemicals A2000). Described as above.

“PpL-R33BpA (PpL-linker-FLAG construct with BpA at R33) (designed binder)” had a yield of conjugated to un-conjugated light chain (by gel intensity) in experiment [1] of 30%.

In experiment [2], “PpL-R33BpA with linker arm and Sortase A recognition site (PpL with the sortase site only) (designed binder)” showed a photoconjugation yield (by gel) of 75%.
